From patent US20110311550A1 (Scripps Research, published 2011)

Legend:
Test in all cases: ELISA, lectin-captured E1E2 lysate, Ab 1 ug/ml;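 note: E1E2 captured on Galanthus nivalis lectin-coated plates, bound test antibody read out by an HRP-linked secondary antibody and TMB colour development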
[1] = target: E1E2 complex (H77) with E1 mutation N305A/N234A (HCV genotype 1a, isolate H77, UniProt P27958 192-383; P27958 384-746)
[2] = target: E1E2 complex (H77) with E1 mutation Q193A (HCV genotype 1a, isolate H77, UniProt P27958 192-383; P27958 384-746)
[3] = target: E1E2 complex (H77) with E1 mutation R195A (HCV genotype 1a, isolate H77, UniProt P27958 192-383; P27958 384-746)
[4] = target: E1E2 complex (H77) with E1 mutation P224A (HCV genotype 1a, isolate H77, UniProt P27958 192-383; P27958 384-746)
[5] = target: E1E2 complex (H77) with E1 mutation P228A (HCV genotype 1a, isolate H77, UniProt P27958 192-383; P27958 384-746)
[6] = target: E1E2 complex (H77) with E1 mutation N234A (HCV genotype 1a, isolate H77, UniProt P27958 192-383; P27958 384-746)
[7] = target: E1E2 complex (H77) with E1 mutation P244A (HCV genotype 1a, isolate H77, UniProt P27958 192-383; P27958 384-746)
[8] = target: E1E2 complex (H77) with E1 mutation Y276A (HCV genotype 1a, isolate H77, UniProt P27958 192-383; P27958 384-746)
[9] = target: E1E2 complex (H77) with E1 mutation G278A (HCV genotype 1a, isolate H77, UniProt P27958 192-383; P27958 384-746)
[10] = target: E1E2 complex (H77) with E1 mutation D279A (HCV genotype 1a, isolate H77, UniProt P27958 192-383; P27958 384-746)
[11] = target: E1E2 complex (H77) with E1 mutation F293A (HCV genotype 1a, isolate H77, UniProt P27958 192-383; P27958 384-746)
[12] = target: E1E2 complex (H77) with E1 mutation Q302A (HCV genotype 1a, isolate H77, UniProt P27958 192-383; P27958 384-746)
[13] = target: E1E2 complex (H77) with E1 mutation N305A (HCV genotype 1a, isolate H77, UniProt P27958 192-383; P27958 384-746)
[14] = target: E1E2 complex (H77) with E1 mutation T314A (HCV genotype 1a, isolate H77, UniProt P27958 192-383; P27958 384-746)
[15] = target: E1E2 complex (H77) with E1 mutation R317A (HCV genotype 1a, isolate H77, UniProt P27958 192-383; P27958 384-746)
[16] = target: E1E2 complex (H77) with E1 mutation A319G (HCV genotype 1a, isolate H77, UniProt P27958 192-383; P27958 384-746)
[17] = target: E1E2 complex (H77) with E1 mutation D321A (HCV genotype 1a, isolate H77, UniProt P27958 192-383; P27958 384-746)
[18] = target: E1E2 complex (H77) with E1 mutation M322A (HCV genotype 1a, isolate H77, UniProt P27958 192-383; P27958 384-746)
[19] = target: E1E2 complex (H77) with E1 mutation P328A (HCV genotype 1a, isolate H77, UniProt P27958 192-383; P27958 384-746)
[20] = target: E1E2 complex (H77) with E1 mutation P341A (HCV genotype 1a, isolate H77, UniProt P27958 192-383; P27958 384-746)
[21] = target: E1E2 complex (H77) with E1 mutation G350A (HCV genotype 1a, isolate H77, UniProt P27958 192-383; P27958 384-746)
[22] = target: E1E2 complex (H77) with E1 mutation H352A (HCV genotype 1a, isolate H77, UniProt P27958 192-383; P27958 384-746)

B1: N4 IgG (antibody, V domains shown)
VH: VQLLEQSGPEVKKPGDSLRISCKMSGDSLVTTWIGWVRQKPGQGLEWMGIINPGDSSTNIYPGDSATRYGPSFQGQVTISIDKSTSTAYLQWNNVKASDTGIYYCARHVPVPISGTFLWREREMHDFGYFDDWGQGTLVIVSS
VL: ELTLTQSPGTLSLSPGERATLSCRASQSVSNNYLAWYQQKPGQAPRLLIYGASSRATGIPDRFSGSGSGTGFTLIISRLEPEDFAVYYCQQYGSSSITFGQGTRLEIKR
notes: also called IgG N4
[1]
  Binding relative to wt (%): 30%
[2]
  Binding relative to wt (%): 117%
[3]
  Binding relative to wt (%): 121%
[4]
  Binding relative to wt (%): 104%
[5]
  Binding relative to wt (%): 38%
[6]
  Binding relative to wt (%): 114%
[7]
  Binding relative to wt (%): 95%
[8]
  Binding relative to wt (%): 103%
[9]
  Binding relative to wt (%): 68%
[10]
  Binding relative to wt (%): 31%
[11]
  Binding relative to wt (%): 95%
[12]
  Binding relative to wt (%): 6%
[13]
  Binding relative to wt (%): 42%
[14]
  Binding relative to wt (%): 83%
[15]
  Binding relative to wt (%): 98%
[16]
  Binding relative to wt (%): 113%
[17]
  Binding relative to wt (%): 92%
[18]
  Binding relative to wt (%): 143%
[19]
  Binding relative to wt (%): 127%
[20]
  Binding relative to wt (%): 105%
[21]
  Binding relative to wt (%): 68%
[22]
  Binding relative to wt (%): 60%
